Reference: the supplement of paper PMC10126150
± gives the standard deviation of the averaged measurements.

system: ATP; experiment: switch fluorescence ratio, 500 uM ATP over buffer (Cy3 cluster intensity, sum of 5 cycles each) (fold (ratio)); higher = stronger signal-on switching upon ATP binding; sequences stand for … in TCGTCGGCAGCGTCAGATGTGTATAAGAGACAGTTTTTTTTTTTTTTTTTTTTTTTTT…TC; conditions: aptamer strand: ATP DNA aptamer (quencher-CACCTGGGGGAGTATTGCGGAGGAAGG + anchor), 100 nM annealed; ATP concentration: 500 uM
In short: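 For every switch-domain sequence, the fluorescence ratio is the mean of per-cluster values, each being summed target-cycle Cy3 intensity over summed buffer-cycle Cy3 intensity. Clusters outside 100-1000 RFU were excluded. On a modified Illumina MiSeq flow-cell, the Cy3-labelled switching-strand clusters were annealed to 100 nM quencher-labelled ATP aptamer, imaged in selection buffer and then after 15 min with 500 uM ATP at 22 °C. Five such cycles were run, with NaOH stripping and re-annealing between them.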
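Further: ATP exposure 15 min at 22 °C before imaging.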

| Sequence | switch fluorescence ratio |
| --- | --- |
| GTTAGATTGT | 0.9731 ± 0.0039 |
| TTCTACTAGT | 0.98 ± 0.024 |
| TATGTGGGCT | 0.987 ± 0.021 |
| TATGGGTTGG | 1.02 ± 0.04 |
| AGAAAGGATT | 1.01 ± 0.021 |
| ATAGTCAAAG | 0.998 ± 0.034 |
| CGTGTTTTAC | 1.018 ± 0.007 |
| TAGGGGAATA | 1.01 ± 0.044 |
| AATTACGGGT | 1 ± 0.021 |
| TTTGCTGTTT | 1.01 ± 0.013 |
| CGCCGAAGGG | 0.98523 ± 0.00014 |
| TTTTTCTGGG | 0.977 ± 0.0099 |
| AGTTGAGTCT | 0.981 ± 0.067 |
| GATTTGAGTG | 0.959 ± 0.027 |
| GGACAATATA | 1.003 ± 0.0016 |
| TTAGGGGTTT | 0.997 ± 0.041 |
| CCGGACGGAG | 1.04 ± 0.026 |
| AAAGTTTTAA | 1.02 ± 0.018 |
| ATATTGGCAT | 1.02 ± 0.026 |
| TCATGGGAAG | 1.02 ± 0.077 |
| TGGGGGAGTG | 0.985 ± 0.024 |
| TTCTAAGGGA | 1.01 ± 0.023 |
| AGATAAAGGT | 0.995 ± 0.057 |

| Sequence | switch fluorescence ratio |
| --- | --- |
| TTGGTCGGGT | 1.02 ± 0.024 |
| CGAGGGAGTA | 0.993 ± 0.035 |
| CGTAAAATGA | 0.992 ± 0.022 |
| CTCGGTTGAC | 1.07 ± 0.015 |
| ACAGGACAGC | 1.14 ± 0.049 |
| AAGTGCGATC | 1.04 ± 0.019 |
| TGCGGGCAAT | 1.1 ± 0.039 |
| CCGGATATGG | 1.135 ± 0.0024 |
| GATGGCCCTT | 0.99064 ± 0.00065 |
| GGTGGATGGC | 1 ± 0.013 |
| GTTGATTTTC | 1.017 ± 0.0079 |
| TTTTATCCA | 1.016 ± 0.0095 |
| GAATTAGGTG | 1.21 ± 0.029 |
| CACGAAGACC | 1.197 ± 0.0068 |
| TGGTTCTTAA | 1.01 ± 0.041 |
| CGCTGAGTGC | 1.08 ± 0.034 |
| CAAGCGGTT | 0.9628 ± 0.0056 |
| CATGCTGTA | 0.981 ± 0.025 |
| TTGATTGATT | 0.9916 ± 0.0055 |
| GGTTAAGCGG | 0.972 ± 0.021 |
| AATACGACGG | 1.14 ± 0.014 |
| TCTGGGAGGC | 1.01 ± 0.021 |
| GAGGGCCAGG | 1.13 ± 0.076 |

| Sequence | switch fluorescence ratio |
| --- | --- |
| TCATTAAGAT | 0.994 ± 0.053 |
| CGGTTGGGGC | 1.11 ± 0.057 |
| TTGGGCCCGG | 0.9878 ± 0.0073 |
| TTGTGGCGGA | 1.0229 ± 0.00038 |
| GTTATTCAAT | 0.9724 ± 0.0018 |
| CAAGGGGGTG | 1.03 ± 0.03 |
| GGGGGGCTAT | 0.976 ± 0.02 |
| CTCGGACAAG | 0.9964 ± 0.0058 |
| ACGTTAAGAT | 1.29 ± 0.26 |
| TTACTTGTAC | 1.15 ± 0.025 |
| TCCCCCTGGT | 1.37 ± 0.069 |
| TCGACCCAGC | 1.104 ± 0.0032 |
| AAAAGTTGCG | 0.9679 ± 0.0076 |
| GGTTGAAAAG | 0.979 ± 0.015 |
| GGTAACATGG | 1.01 ± 0.021 |
| TACAGCGGAG | 0.999 ± 0.066 |
| GTGAAGGGTA | 0.985 ± 0.0081 |
| CAAAGTAGGC | 0.958 ± 0.018 |
| GTGGTAAATG | 1.01 ± 0.035 |
| ATCTGATCGA | 0.96 ± 0.037 |
| GGGAAGAACC | 1.02 ± 0.013 |
| TTCCTGATGC | 1.04 ± 0.092 |
| CGTTCAAGTA | 0.973 ± 0.056 |

| Sequence | switch fluorescence ratio |
| --- | --- |
| ACAAACACTT | 1.158 ± 0.01 |
| AAATGGGGTC | 0.998 ± 0.023 |
| TGGGGACTTT | 1.04 ± 0.045 |
| GGGTAATTTT | 1.02 ± 0.047 |
| AGGGGGTCTA | 1.013 ± 0.0014 |
| TTTGTAGATC | 1.06 ± 0.066 |
| TTGGGGAGTG | 0.988 ± 0.017 |
| TTTGGGGTTC | 1.02 ± 0.044 |
| TAACATCTGT | 0.975 ± 0.021 |
| AACAGATGGA | 1.16 ± 0.3 |
| GCGGCCTCTT | 0.993 ± 0.013 |
| GGGGTAATAT | 1.06 ± 0.053 |
| AATGAATGAG | 0.971 ± 0.022 |
| TTAGATTGCG | 0.973 ± 0.026 |
| AAAGTGGGCC | 0.9593 ± 0.0049 |
| ATTGGTAGAG | 0.9717 ± 0.0024 |
| AGATTTGGCT | 0.9952 ± 0.0065 |
| ACCGCATAGG | 1.0484 ± 4.5e-05 |
| GGGGGGTTTT | 1.01 ± 0.059 |
| GTTGTGAGGG | 0.981 ± 0.018 |
| GGGGTTGAGG | 0.993 ± 0.023 |
| TCTGCTTTTG | 1.05 ± 0.02 |
| ATTTGGGGCT | 0.981 ± 0.017 |

| Sequence | switch fluorescence ratio |
| --- | --- |
| TGTTTGTATT | 0.955 ± 0.03 |
| TTTTCCAGCC | 1.04 ± 0.036 |
| TTGATTTAAT | 1 ± 0.028 |
| AGATTTCACT | 1.01 ± 0.016 |
| GAGTAAGTA | 1.002 ± 0.0064 |
| AGAACAAACC | 1.08 ± 0.018 |
| TGGGTCAATA | 1.03 ± 0.054 |
| TTAGGGGTTG | 0.979 ± 0.024 |
| ACGTCATAGT | 1.14 ± 0.047 |
| CGGTAATATC | 1.915 ± 0.016 |
| GGGGTAAGGC | 0.979 ± 0.019 |
| TCGGGGCCAT | 1.02 ± 0.062 |
| CGGTGTTGCC | 0.971 ± 0.011 |
| TATTCAATTT | 1 ± 0.021 |
| AAAGATTCGA | 0.996 ± 0.01 |
| TATTGAATGG | 0.972 ± 0.03 |
| TGGATTGAGC | 0.967 ± 0.026 |
| TCATAGTTTT | 1.01 ± 0.042 |
| TTTTGGATTT | 0.993 ± 0.018 |
| TCCGAGATCT | 1.08 ± 0.053 |
| GGGTCCGGCC | 0.992 ± 0.02 |
| TGGTTTTTT | 0.998 ± 0.03 |
| TAAGCGCGGC | 1.055 ± 0.0079 |

| Sequence | switch fluorescence ratio |
| --- | --- |
| TATCGACGGC | 1.03 ± 0.05 |
| TTGTTTAACG | 0.99757 ± 0.00042 |
| AATAGGGTG | 1.08 ± 0.07 |
| ACCTAATGTT | 1.02 ± 0.016 |
| TTTTAAGAAG | 1.02 ± 0.018 |
| CCATTAGTAT | 1.057 ± 0.0076 |
| AGCAAGGATT | 1.1 ± 0.1 |
| CCGTGTCATT | 1.013 ± 0.0023 |
| GCGGGTTACT | 1.053 ± 0.0028 |
| TTAAACGC | 1.03 ± 0.012 |
| AGGGGCATAG | 1.007 ± 0.003 |
| GTAGTTTGCG | 0.928 ± 0.12 |
| ATTTTTTAAC | 1.019 ± 0.0096 |
| AAAGAAAGC | 1.02 ± 0.08 |
| TAGTTGCATT | 0.994 ± 0.003 |
| TGGGGGCTTC | 0.9896 ± 0.0091 |
| AAAATTGGAA | 1 ± 0.03 |
| AGAAGGTGTT | 1.07 ± 0.078 |
| GCTTTGCGCT | 0.988 ± 0.015 |
| ATTGGGGATT | 1.013 ± 0.009 |
| GGTAAATTGT | 1.01 ± 0.028 |
| GGGGGGCCTC | 0.981 ± 0.015 |
| GAAGTAAAAA | 1.01 ± 0.026 |

| Sequence | switch fluorescence ratio |
| --- | --- |
| AGTAGTTATT | 0.965 ± 0.011 |
| TTATGCGGGG | 0.995 ± 0.046 |
| CTAAGCCGTT | 0.971 ± 0.011 |
| TTAAGTATTT | 0.997 ± 0.055 |
| AAAGGGAACC | 1.017 ± 0.0037 |
| CGGATATGGT | 1 ± 0.013 |
| GGGATCTCGG | 1.05 ± 0.0066 |
| CTTTATGGGA | 0.988 ± 0.031 |
| CAGCTGGTAT | 0.9992 ± 0.0011 |
| TAGTCTTGGG | 1.001 ± 0.0026 |
| ACGGGTAGGG | 1.05 ± 0.035 |
| TAGAGTTGTT | 0.984 ± 0.03 |
| GATTCAGGAA | 1 ± 0.047 |
| GGTGACGTGG | 1.02 ± 0.012 |
| AAGGCGCGGC | 0.9694 ± 0.0088 |
| GGGATGGTAG | 1.01 ± 0.027 |
| ATTGGAGTGG | 0.994 ± 0.032 |
| TTAAAGGTTA | 0.989 ± 0.013 |
| TGAGCGTTGG | 0.9987 ± 0.0062 |
